Reference: US20250197461A1, “Insect-derived short peptide for improving abscisic acid (ABA) content in cruciferous plant” (Gannan Normal University, priority 2023, published 2025)

Biological target: T1, zeaxanthin epoxidase aba1 (Arabidopsis thaliana, UniProt Q9FGC7)
T1 construct: expressed in transfected cells; host or cells: Y2HGold yeast (Saccharomyces cerevisiae)
T1 sequence (Q9FGC7 60-667): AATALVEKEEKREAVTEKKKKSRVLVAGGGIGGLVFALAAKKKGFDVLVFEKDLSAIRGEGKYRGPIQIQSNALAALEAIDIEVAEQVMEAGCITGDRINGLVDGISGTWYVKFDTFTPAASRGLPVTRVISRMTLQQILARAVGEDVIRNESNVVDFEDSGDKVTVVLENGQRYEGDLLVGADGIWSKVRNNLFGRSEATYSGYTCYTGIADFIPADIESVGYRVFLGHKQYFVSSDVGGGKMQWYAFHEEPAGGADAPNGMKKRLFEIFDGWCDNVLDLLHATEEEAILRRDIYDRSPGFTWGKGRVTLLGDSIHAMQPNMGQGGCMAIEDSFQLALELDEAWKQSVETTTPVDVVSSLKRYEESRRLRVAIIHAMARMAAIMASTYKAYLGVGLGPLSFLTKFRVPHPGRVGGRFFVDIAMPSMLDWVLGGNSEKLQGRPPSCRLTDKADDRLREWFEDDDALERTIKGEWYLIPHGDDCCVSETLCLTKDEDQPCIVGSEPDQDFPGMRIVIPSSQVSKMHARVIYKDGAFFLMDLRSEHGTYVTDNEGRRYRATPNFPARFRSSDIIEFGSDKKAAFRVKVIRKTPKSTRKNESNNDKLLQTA
Assay: Yeast two-hybrid interaction of GSS1 and its variants with aba1
Format: binding
Settings: Y2HGold yeast, TDO/QDO with x-α-gal
Description: A Y2HGold yeast transformant containing the correct pGBKT7-GSS1 bait plasmid was used as a recipient strain to prepare competent cells, and a library plasmid extracted from the yeast library was transferred into the competent cells, and coated on the SD-Trp-Leu-His+5 mM3AT plate. […]

## PDYKQKLRDSKAWESLETIGIPLDADVM (insect-derived short peptide) [GSS1-PI]
  interaction with aba1 (yeast two-hybrid): interacted with aba1
